B1: Complex I assembly factor TIMMDC1, mitochondrial (Homo sapiens), Q9NPL8 (parent)
chain: MEVPPPAPRSFLCRALCLFPRVFAAEAVTADSEVLEERQKRLPYVPEPYYPESGWDRLRELFGKDEQQRISKDLANICKTAATAGIIGWVYGGIPAFIHAKQQYIEQSQAEIYHNRFDAVQSAHRAATRGFIRYGWRWGWRTAVFVTIFNTVNTSLNVYRNKDALSHFVIAGAVTGSLFRINVGLRGLVAGGIIGALLGTPVGGLLMAFQKYSGETVQERKQKDRKALHELKLEEWKGRLQVTEHLPEKIESSLQEDEPENDAKKIEALLNLPRNPSVIDKQDKD
partner: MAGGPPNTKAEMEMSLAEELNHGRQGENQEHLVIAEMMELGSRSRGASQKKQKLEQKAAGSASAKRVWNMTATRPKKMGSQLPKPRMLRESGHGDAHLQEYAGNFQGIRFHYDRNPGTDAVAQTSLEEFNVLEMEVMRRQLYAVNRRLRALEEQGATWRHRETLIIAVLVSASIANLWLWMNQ
B2: Notch homolog 2 N-terminal-like protein A (Homo sapiens), Q7Z3S9 (parent)
chain: MCVTYHNGTGYCKCPEGFLGEYCQHRDPCEKNRCQNGGTCVAQAMLGKATCRCASGFTGEDCQYSTSHPCFVSRPCLNGGTCHMLSRDTYECTCQVGFTGKECQWTDACLSHPCANGSTCTTVANQFSCKCLTGFTGQKCETDVNECDIPGHCQHGGTCLNLPGSYQCQCLQGFTGQYCDSLYVPCAPSPCVNGGTCRQTGDFTFECNCLPETVRRGTELWERDREVWNGKEHDEN
partner: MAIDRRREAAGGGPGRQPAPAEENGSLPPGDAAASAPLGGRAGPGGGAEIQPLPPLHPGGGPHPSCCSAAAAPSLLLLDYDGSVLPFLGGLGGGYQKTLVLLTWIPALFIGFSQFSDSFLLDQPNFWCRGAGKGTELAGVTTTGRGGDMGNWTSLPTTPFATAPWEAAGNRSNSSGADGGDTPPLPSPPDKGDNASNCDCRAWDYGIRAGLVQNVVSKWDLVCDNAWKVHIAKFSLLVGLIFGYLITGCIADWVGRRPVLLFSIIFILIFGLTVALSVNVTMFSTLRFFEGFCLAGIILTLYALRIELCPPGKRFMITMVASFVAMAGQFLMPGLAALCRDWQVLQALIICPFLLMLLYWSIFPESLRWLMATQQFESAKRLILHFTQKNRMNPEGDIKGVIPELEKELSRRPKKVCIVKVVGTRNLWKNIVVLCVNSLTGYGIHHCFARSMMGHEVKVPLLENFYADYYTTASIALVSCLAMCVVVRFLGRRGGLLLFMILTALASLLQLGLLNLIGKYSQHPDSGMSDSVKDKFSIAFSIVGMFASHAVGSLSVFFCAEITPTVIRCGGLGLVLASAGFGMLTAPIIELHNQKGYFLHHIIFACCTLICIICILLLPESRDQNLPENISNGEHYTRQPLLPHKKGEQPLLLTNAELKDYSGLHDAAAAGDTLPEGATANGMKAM
B3: Glycodelin (Homo sapiens), P09466 (parent)
chain: MLCLLLTLGVALVCGVPAMDIPQTKQDLELPKLAGTWHSMAMATNNISLMATLKAPLRVHITSLLPTPEDNLEIVLHRWENNSCVEKKVLGEKTENPKKFKINYTVANEATLLDTDYDNFLFLCLQDTTTPIQSMMCQYLARVLVEDDEIMQGFIRAFRPLPRHLWYLLDLKQMEEPCRF
partner: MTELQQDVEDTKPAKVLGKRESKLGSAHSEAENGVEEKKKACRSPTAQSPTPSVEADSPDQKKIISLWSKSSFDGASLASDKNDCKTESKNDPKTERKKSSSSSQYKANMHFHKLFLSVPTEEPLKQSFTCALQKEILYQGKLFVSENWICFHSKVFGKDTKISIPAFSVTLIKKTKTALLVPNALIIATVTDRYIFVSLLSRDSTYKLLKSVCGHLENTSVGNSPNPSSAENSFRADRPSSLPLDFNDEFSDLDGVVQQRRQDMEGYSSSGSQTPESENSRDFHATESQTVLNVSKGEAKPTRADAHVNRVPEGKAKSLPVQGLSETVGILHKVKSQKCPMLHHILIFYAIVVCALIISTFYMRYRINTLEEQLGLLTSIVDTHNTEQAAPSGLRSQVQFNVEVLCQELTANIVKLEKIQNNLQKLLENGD
B4: NIF3-like protein 1 (Homo sapiens), Q9GZT8 (parent)
chain: MLSSCVRPVPTTVRFVDSLICNSSRSFMDLKALLSSLNDFASLSFAESWDNVGLLVEPSPPHTVNTLFLTNDLTEEVMEEVLQKKADLILSYHPPIFRPMKRITWNTWKERLVIRALENRVGIYSPHTAYDAAPQGVNNWLAKGLGACTSRPIHPSKAPNYPTEGNHRVEFNVNYTQDLDKVMSAVKGIDGVSVTSFSARTGNEEQTRINLNCTQKALMQVVDFLSRNKQLYQKTEILSLEKPLLLHTGMGRLCTLDESVSLATMIDRIKRHLKLSHIRLALGVGRTLESQVKVVALCAGSGSSVLQGVEADLYLTGEMSHHDTLDAASQGINVILCEHSNTERGFLSDLRDMLDSHLENKINIILSETDRDPLQVV
B5: Tripartite motif-containing protein 59 (Homo sapiens), Q8IWR1 (parent)
chain: MHNFEEELTCPICYSIFEDPRVLPCSHTFCRNCLENILQASGNFYIWRPLRIPLKCPNCRSITEIAPTGIESLPVNFALRAIIEKYQQEDHPDIVTCPEHYRQPLNVYCLLDKKLVCGHCLTIGQHHGHPIDDLQSAYLKEKDTPQKLLEQLTDTHWTDLTHLIEKLKEQKSHSEKMIQGDKEAVLQYFKELNDTLEQKKKSFLTALCDVGNLINQEYTPQIERMKEIREQQLELMALTISLQEESPLKFLEKVDDVRQHVQILKQRPLPEVQPVEIYPRVSKILKEEWSRTEIGQIKNVLIPKMKISPKRMSCSWPGKDEKEVEFLKILNIVVVTLISVILMSILFFNQHIITFLSEITLIWFSEASLSVYQSLSNSLHKVKNILCHIFYLLKEFVWKIVSH
partner: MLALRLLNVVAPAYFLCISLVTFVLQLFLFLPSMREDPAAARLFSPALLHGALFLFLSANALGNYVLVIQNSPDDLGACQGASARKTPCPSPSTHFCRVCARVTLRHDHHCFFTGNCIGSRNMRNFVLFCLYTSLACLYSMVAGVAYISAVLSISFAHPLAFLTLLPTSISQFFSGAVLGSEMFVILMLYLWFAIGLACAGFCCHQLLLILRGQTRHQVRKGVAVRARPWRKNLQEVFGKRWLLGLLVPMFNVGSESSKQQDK
B6: PDCD10 and GCKIII kinases-associated protein 1 (Homo sapiens), Q8IY42 (parent)
chain: MGCRCCKIIQSYLFDPVQVPSPGYVNEVNSCKLDEDDTDKLKGKWSSEVLVQKNDPQRQGSKKTESSSRTADPWEPCWPHQGPLPQGDAGGEHHACGVNGIGPAATPQPTGNSSPTQDDRGSWASTANTVPPTQPFLEGGGTRKQDCVLLASEGTQVMRNGDSRAPSEAESFALEVQDHVFQIPAPDYLQHWGPAGDNVDHNEKDCVFKNHTEDESLEGIQPPVGEHGLNTPFSVRRSWDSLNEDVETEVLSICFNEKGPVHAMPVVDSGNRQEDTHGSDGDGDGEIVDEDAAVAEALAALEAATAGEDLDETD
B7: Rab-like protein 2A (Homo sapiens), Q9UBK7 (parent)
chain: MAEDKTKPSELDQGKYDADDNVKIICLGDSAVGKSKLMERFLMDGFQPQQLSTYALTLYKHTATVDGKTILVDFWDTAGQERFQSMHASYYHKAHACIMVFDIQRKVTYRNLSTWYTELREFRPEIPCIVVANKIDDINVTQKSFNFAKKFSLPLYFVSAADGTNVVKLFNDAIRLAVSYKQNSQDFMDEIFQELENFSLEQEEEDVPDQEQSSSIETPSEEVASPHS
partner: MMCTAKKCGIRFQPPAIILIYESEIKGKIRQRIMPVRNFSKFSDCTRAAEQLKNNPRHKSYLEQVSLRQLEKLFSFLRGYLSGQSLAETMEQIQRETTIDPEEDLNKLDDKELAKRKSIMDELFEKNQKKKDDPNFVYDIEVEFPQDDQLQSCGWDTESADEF

Variants of: B1
Conditions: with fate1_human FATE1, Q969F0

effect of a mutation on the interaction | Variant
with no effect | P247S
with no effect | A164G

Variants of: B2
Conditions: with SLC22A23, A1A5C7

effect of a mutation on the interaction | Variant
with no effect | A115T
with no effect | R74Q

Variants of: B3
Conditions: with grm2b_human GRAMD2B

effect of a mutation on the interaction | Variant
with no effect | Q126K

Variants of: B4
Conditions: with zn446_human ZNF446, Q9NWS9
Sequence of zn446_human ZNF446, Q9NWS9 (Q9NWS9 whole entry): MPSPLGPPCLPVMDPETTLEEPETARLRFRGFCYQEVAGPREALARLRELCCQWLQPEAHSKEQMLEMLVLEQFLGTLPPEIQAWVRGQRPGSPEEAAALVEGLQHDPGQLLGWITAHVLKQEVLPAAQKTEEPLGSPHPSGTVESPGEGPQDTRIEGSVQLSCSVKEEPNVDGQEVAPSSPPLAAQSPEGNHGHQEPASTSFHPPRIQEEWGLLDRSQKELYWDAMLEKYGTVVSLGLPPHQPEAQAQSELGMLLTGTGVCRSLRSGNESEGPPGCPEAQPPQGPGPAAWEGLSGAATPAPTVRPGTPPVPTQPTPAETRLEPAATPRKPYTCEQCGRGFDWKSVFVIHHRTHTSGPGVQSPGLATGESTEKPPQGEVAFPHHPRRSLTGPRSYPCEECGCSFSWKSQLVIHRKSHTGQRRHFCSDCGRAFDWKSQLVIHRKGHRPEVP

effect of a mutation on the interaction | Variant
with no effect | T324I

Variants of: B4
Conditions: with rgs20_human RGS20, O76081
Sequence of rgs20_human RGS20, O76081 (O76081 whole entry): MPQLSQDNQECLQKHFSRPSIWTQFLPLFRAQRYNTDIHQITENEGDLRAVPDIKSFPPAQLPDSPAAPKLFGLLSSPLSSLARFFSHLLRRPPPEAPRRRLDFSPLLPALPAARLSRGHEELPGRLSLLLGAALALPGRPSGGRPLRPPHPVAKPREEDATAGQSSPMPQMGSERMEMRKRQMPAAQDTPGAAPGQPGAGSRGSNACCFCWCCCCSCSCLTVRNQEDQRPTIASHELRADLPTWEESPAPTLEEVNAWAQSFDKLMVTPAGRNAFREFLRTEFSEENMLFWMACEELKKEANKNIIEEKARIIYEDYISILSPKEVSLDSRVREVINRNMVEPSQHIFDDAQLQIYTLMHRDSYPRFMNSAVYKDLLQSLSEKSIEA

effect of a mutation on the interaction | Variant
with no effect | T324I

Variants of: B5
Conditions: with zdh22_human ZDHHC22, Q8N966

effect of a mutation on the interaction | Variant
with no effect | I277V

Variants of: B6
Conditions: with pdc10_human PDCD10, Q9BUL8
Sequence of pdc10_human PDCD10, Q9BUL8 (Q9BUL8 whole entry): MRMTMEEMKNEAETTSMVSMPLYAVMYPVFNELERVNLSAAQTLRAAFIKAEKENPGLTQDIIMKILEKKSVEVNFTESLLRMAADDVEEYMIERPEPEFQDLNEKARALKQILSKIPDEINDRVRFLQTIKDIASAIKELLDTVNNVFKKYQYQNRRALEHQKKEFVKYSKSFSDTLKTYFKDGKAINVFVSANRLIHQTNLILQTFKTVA

effect of a mutation on the interaction | Variant
with no effect | A151T

Variants of: B6
Conditions: with eif3e_human EIF3E

effect of a mutation on the interaction | Variant
with no effect | A151T

Variants of: B7
Conditions: with cep19_human CEP19, Q96LK0

effect of a mutation on the interaction | Variant
with no effect | L119F

From IntAct's records for PubMed 31515488
